Measurements from publication PMC7211764.

Target: wild-type A3A 1-199 (APOBEC3A) (human) (UniProt P31941)
Assay: SEC

Chain of wild-type A3A 1-199 (APOBEC3A), P31941 1-199 (enzyme; other documents disagree on this pair) (P31941 whole entry): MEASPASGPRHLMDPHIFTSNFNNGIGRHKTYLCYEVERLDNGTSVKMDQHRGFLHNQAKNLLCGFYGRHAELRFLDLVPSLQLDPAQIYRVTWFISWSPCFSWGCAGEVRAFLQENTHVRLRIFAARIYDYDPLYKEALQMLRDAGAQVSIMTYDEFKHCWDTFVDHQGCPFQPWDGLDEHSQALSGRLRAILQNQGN

stoichiometry N: 2
Substance: wild-type A3A 1-199 (APOBEC3A), P31941 1-199 (enzyme; other documents disagree on this pair)
